This is an account of results in paper PMC12000384, “Competition for the nascent leading strand shapes the requirements for PCNA loading in the replisome” (The EMBO Journal, 2025).

The target in this test is T1, CMG (Cdc45-MCM-GINS) helicase (S. cerevisiae, UniProt Q08032 1-650; P29469 1-868; P24279 1-971; P30665 1-933; P29496 1-775; P53091 …).
T1 construct: Cdc45, S. cerevisiae; Mcm2, S. cerevisiae; Mcm3, S. cerevisiae; Mcm4, S. cerevisiae; Mcm5, S. cerevisiae; Mcm6, S. cerevisiae; Mcm7, S. cerevisiae; GINS subunit, S. cerevisiae; 11-subunit helicase; The two strains express the same chains; in yVA94 endogenous Ctf4-2xStrep was depleted on Strep-Tactin resin; also called Ctf4-depleted CMG; wild-type CMG; source: S. cerevisiae, overexpressed, …
The test is described as follows: cryo-EM structure; replisome reconstituted on ice on forked DNA with 0.5 mM AMP-PNP from 150 nM CMG (Ctf4-depleted), Pol ε^exo-, Ctf18-RFC, Tof1-Csm3, Ctf4 and Mrc1 in 25 mM HEPES-NaOH pH 7.6, 150 mM NaOAc, 15 mM Mg(OAc)2, 0.5 mM TCEP; 10-30% glycerol gradient with glutaraldehyde and BS3 cross-linking. The note with it: both partners purified.

B1: Ctf4 (natural protein, S. cerevisiae, UniProt Q01454 1-927, looked up)
chain: MVSVIDKLVFDFGGKTLVSLAPDNNTLCVANKNGLTKILKTNNPEEEPETLDSSKLVSSIKCYSNSHFLMTTMQGDALRYNIDSSQEELLARFALPLRDCCVIHSGKMAVFGGDDLELILLELDDETHKKHAIKIDEQVSQISYNSQMNILAVSMINGKVQIFSLTSTIPNKVHELNDYIVANSYDDTHRDKILSNMMDDIDKDNDNDLSETADPDENNVADPEFCAANRICTRVAWHPKGLHFALPCADDTVKIFSIKGYSLQKTLSTNLSSTKAHFIDLQFDPLRGTYIAAVDLNNKLTVWNWETSEIHYTREFKRKITNIAWKIQADSKTLDLVLGTWSGSIAIVQNLAESVVSNIPDQSVAESSTKHGLFVDSESDLENLEGNDDINKSDKLFSDITQEANAEDVFTQTHDGPSGLSEKRKYNFEDEEDFIDDDDGAGYISGKKPHNEHSYSRVHKTHSFPISLANTGKFRYMPFSPAGTPFGFTDRRYLTMNEVGYVSTVKNSEQYSITVSFFDVGRFREYHFEDLFGYDLCFLNEKGTLFGQSKTGQIQYRPHDSIHSNWTKIIPLQAGERITSVAATPVRVIVGTSLGYFRSFNQFGVPFAVEKTSPIVALTAQNYRVFSVHYSQFHGLSYSLSELGTSSKRYYKRECPLPMSLPNINSDMKKDANLDYYNFNPMGIKSLFFSSYGDPCIFGSDNTLLLLSKWRSPEESKWLPILDSNMEIWKMSGGKETTDIHVWPLALAYDTLNCILVKGKHIWPEFPLPLPSEMEIRMPVFVKSKLLEENKAILNKKNEIGADTEAEEGEEDKEIQIPVSMAAEEEYLRSKVLSELLTDTLENDGEMYGNENEVLAALNGAYDKALLRLFASACSDQNVEKALSLAHELKQDRALTAAVKISERAELPSLVKKINNIREARYEQQLK
notes: Ctf4, S. cerevisiae; source: purified as in Yeeles et al, 2015
Consider B1, for which the binding result is reported as “binds”.

B2: Tof1-Csm3 (complex, S. cerevisiae)
chain 1: MSADLQQGTTNAADFSLTVLRARIALLATAIGGPDYTSQIDPPPYKLGDDCLACLKDLKRWFKLVDDQQKRWDVAMAVAEYRILTDDLLPILIDWENKCSLAAKLAKNNPDHEEFRNKAYYDKIALNCLQLLVLMTWPLIVTEQSSSNQITLYGELKKHQLVYKKTILSMESGKVLRAAIRLALDVIKIDRLSRTPRDNMVLKLVLNFFRNVIAIEPGEFTINTKKSMPKKGITSIDTLPPNVSMDDISLNTVISSFHKNKVFGFLLTLTSSLSKEFDQDFINIPLLEIMFYFTKDVNQELLFPRQFETGTHSKVVNKNESSSANNIVTSAGFELSKLLQKEHQMRKNVIKHTSARHSRFGGLLSIQTPDKTRLTVSGSQALVDEKIALQKLDDSKKWNKRIIKKHQSVAAEGLPNSLLNSQTGKAIFFTESNGKHFKEFINNFIDSGFNILLHSVTNYFTTEQDRMVTLEQVEYLLFFAWFVKYQLLRSKIDNSADIKQVSEALKEVTFILVSSLLRSAYDLKNWTVTHAGMIAFNELLNLVSRTKAAQEEDSTDIEFIVSRLFSDERIQLLSNLPKIGSKYSLQFMKSCIELTHSVLKVLEQYSDDKTLVIEGKSRRQKKFNISEGDITKLIEEENVDRDEALDILTSSLRSIEVNFQKVQANYMTEPVIETYINFLERFRELEDDSIKKVFSFFHRVFVQAKEQALLFRFDLIILLREMLSPDGLDRMSRSRKYVSQFSDYFLARLKKRLKKSPAWFVGLLFPPLHNSEVGFYQRYGEYNVLNNESMYAAPASQFKPIPDEEALPPSILLDMKYGVLVSTLLDDGKTELLDQLLKHITHTLDIFKSWLTVNVNAGKETVNPPNEYFTLTGVLNNDPIFKDKDYRALLLLIGYSIPRKINEPCFLPGTVEVSDLTVSCELVKKYLSTPFETPNGLPSSSYLLRVRSEKDSFSHNEQDGWEGDDDYDYNDPYIVPDDQILSKSDAAYFKDLDNNASDKLKGTKFSKGIARSKKKDKRKRRKGEAKTNLPMFGDQDDERPQTVRERHGVFSKEFISDSEDDEDLMNPIFFENETYMRWLLDKNNGQLTEDRYIQFAKFAAERMNNGGVVTGDYTSLFGGSIPSIESIRATESSSFAPDKSLISLASHVASEMSIFDVNNNNNNQLSDDDVNSESRNSLGSSQPSNSQNMFQSEVYSRKESTKRSLEASAADESDEDEEAIRLFGKKSRVVLSQGDSDD
chain 2: MDQDFDSLLLGFNDSDSVQKDPTVPNGLDGSVVDPTIADPTAITARKRRPQVKLTAEKLLSDKGLPYVLKNAHKRIRISSKKNSYDNLSNIIQFYQLWAHELFPKAKFKDFMKICQTVGKTDPVLREYRVSLFRDEMGMSFDVGTRETGQDLERQSPMVEEHVTSAEERPIVADSFAQDKRNVNNVDYDNDEDDDIYHLSYRNRRGRVLDERGNNETVLNNVVPPKEDLDALLKTFRVQGPVGLEENEKKLLLGWLDAHRKMEKGSMTEEDVQLIQSLEEWEMNDIEGQHTHYDLLPGGDEFGVDQDELDAMKEMGF
notes: Tof1, S. cerevisiae; Csm3, S. cerevisiae; source: purified as in Yeeles et al, 2017
For B2, the binding result was “binds”.
